Results: the supplement of paper PMC10567573

B1: LARP4 (parent)
chain: WTVANMEEIKKLTTDPDLILEVLR

Variants of: B1
Experiment: protein stability index of a GFP-peptide fusion (GPS, HEK-293T) (PSI 1-6); higher = more stable
Details: c terminus: a fixed tail appended
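Further: lentivirally expressed fusions sorted by FACS into six bins by GFP to DsRed ratio, PSI derived from sequencing read proportions per bin multiplied by bin number.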

In order of rising protein stability index:
1. WTVANMEEIKKLTTIPDLILEVLR  1.18
2. WTVANMEEIKKLTTDPILILEVLR  1.25
3. WTVANMEEIKKLTTYPDLILEVLR  1.38
4. WTVANMEEIKKLSTDPDLILEVLR  1.39
5. WTVANMEEIKKLTTRPDLILEVLR  1.4
6. WTVANMEEIKKLTTDPCLILEVLR  1.44
7. WTVANMEEIKKLTTDPDLILLVLR  1.48
8. WTVANMEEIKKLTTDPWLILEVLR  1.49
9. WTVANMEEIKKLTTDPGLILEVLR  1.51
10. WTVANMEEIKKLTTDPLLILEVLR  1.52
11. WTVANMEEIKKLTTDPYLILEVLR  1.53
12. WTVANMEEIKKLTTSPDLILEVLR  1.53
13. WTVANMEEIKKLTTCPDLILEVLR  1.53
14. WTVANMEEIKKLQTDPDLILEVLR  1.58
15. WTVANMEEIKKLTTDPDLILHVLR  1.58
16. WTVANMEEIKKLTTVPDLILEVLR  1.59
17. WTVANMEEIKKLTTDPDLILQVLR  1.6
18. WTVANMEEIKKLTTDPDLILFVLR  1.63
19. WTVANMEEIKKLTTDPDLILSVLR  1.66
20. WTVANMEEIKKLTTDPDLILCVLR  1.69
21. WTVANMEEIKKLTTAPDLILEVLR  1.69
22. WTVANMEEIKKLTTFPDLILEVLR  1.7
23. WTVANMEEIKKLTTDPTLILEVLR  1.77
24. WTVANMEEIKKLTTDPFLILEVLR  1.77
25. WTVANMEEIKKLTTDPELILEVLR  1.79
26. WTVANMEEIKKLRTDPDLILEVLR  1.82
27. WTVANMEEIKKLFTDPDLILEVLR  1.82
28. WTVANMEEIKKLWTDPDLILEVLR  1.83
29. WTVANMEEIKKLTTDPDLILIVLR  1.85
30. WTVANMEEIKKLTTDPRLILEVLR  1.86
31. WTVANMEEIKKLYTDPDLILEVLR  1.86
32. WTVANMEEIKKLTTDPDLILVVLR  1.86
33. WTVANMEEIKKLMTDPDLILEVLR  1.87
34. WTVANMEEIKKLTTDPHLILEVLR  1.88
35. WTVANMEEIKKLTTWPDLILEVLR  1.89
36. WTVANMEEIKKLTTDPDLILTVLR  1.9
37. WTVANMEEIKKLNTDPDLILEVLR  1.92
38. WTVANMEEIKKLTTDPDLILRVLR  1.92
39. WTVANMEEIKKLTTDPNLILEVLR  1.93
40. WTVANMEEIKKLHTDPDLILEVLR  1.97
41. WTVANMEEIKKLTTPPDLILEVLR  1.97
42. WTVANMEEIKKLTTDPVLILEVLR  1.98
43. WTVANMEEIKKLTTDPDLILPVLR  1.98
44. WTVANMEEIKKLTTTPDLILEVLR  2
45. WTVANMEEIKKLTTDPDLIGEVLR  2.01
46. WTVANMEEIKKLTTDPDLIWEVLR  2.01
47. WTVANMEEIKKLTTDPSLILEVLR  2.02
48. WTVANMEEIKKLKTDPDLILEVLR  2.02
49. WTVANMEEIKKLTTDPDLIMEVLR  2.02
50. WTVANMEEIKKLITDPDLILEVLR  2.04
51. WTVANMEEIKKLTTDPKLILEVLR  2.05
52. WTVANMEEIKKLTTKPDLILEVLR  2.05
53. WTVANMEEIKKLTTGPDLILEVLR  2.05
54. WTVANMEEIKKLTTDPDLILMVLR  2.08
55. WTVANMEEIKKLTTDPALILEVLR  2.09
56. WTVANMEEIKKLTTDPDLILAVLR  2.1
57. WTVANMEEIKKLTTDPDLILWVLR  2.1
58. WTVANMEEIKKLTTDPDLISEVLR  2.1
59. WTVANMEEIKKLTTDPDLIIEVLR  2.1
60. WTVANMEEIKKLTTLPDLILEVLR  2.1
61. WTVANMEEIKKLTTQPDLILEVLR  2.1
62. WTVANMEEIKKLTTDPDLILYVLR  2.12
63. WTVANMEEIKKLLTDPDLILEVLR  2.14
64. WTVANMEEIKKLTTNPDLILEVLR  2.14
65. WTVANMEEIKKLTTDPDLIFEVLR  2.15
66. WTVANMEEIKKLTTDPMLILEVLR  2.16
67. WTVANMEEIKKLTTDPDLIYEVLR  2.17
68. WTVANMEEIKKLTTDPDLIVEVLR  2.19
69. WTVANMEEIKKLTTDPPLILEVLR  2.2
70. WTVANMEEIKKLTTDPDLILGVLR  2.21
71. WTVANMEEIKKLTTHPDLILEVLR  2.21
72. WTVANMEEIKKLGTDPDLILEVLR  2.23
73. WTVANMEEIKKLETDPDLILEVLR  2.24
74. WTVANMEEIKKLPTDPDLILEVLR  2.24
75. WTVANMEEIKKLTTMPDLILEVLR  2.26
76. WTVANMEEIKKLTTDPDLILDVLR  2.31
77. WTVANMEEIKKLTTDPQLILEVLR  2.32
78. WTVANMEEIKKLTTDPDLILNVLR  2.32
79. WTVANMEEIKKLTTDPDLILKVLR  2.36
80. WTVANMEEIKKLTTDPDLILEVAR  2.37
81. WTVANMEEIKKLTTDPDLIREVLR  2.38
82. WTVANMEEIKKLTTDPDLITEVLR  2.52
83. WTVANMEEIKKLTTDPDLICEVLR  2.56
84. WTVANMEEIKKLTTDPDLIHEVLR  2.64
85. WTVANMEEIKKLVTDPDLILEVLR  2.94
86. WTVANMEEIKKLTTDPDLIPEVLR  3.02
87. WTVANMEEIKKLTTEPDLILEVLR  3.16
88. WTVANMEEIKKLTTDPDLILEVCR  3.17
89. WTVANMEEIKKLTTDPDLINEVLR  3.24
90. WTVANMEEIKKLTTDPDLIAEVLR  3.37
91. WTVANMEEIKKLTTDPDLIKEVLR  3.53
92. WTVANMEEIKKLTTDPDLIQEVLR  3.64
93. WTVANMEEIKKLTTDPDLIEEVLR  3.68
94. WTVANMEEIKKLTTDPDLIDEVLR  3.74
